Source: patent US9364516B2, “Treatment of fibrosis-related disorders using fibronectin binding proteins and polypeptides” (priority 2010, dated 2016)

Legend:
fibrinogen = molecular target: T1, fibrinogen (Homo sapiens, UniProt P02671+P02675+P02679); assay: ELISA binding of pUR4 to ECM proteins: fibrinogen; conditions: plates coated 10 μg/mL, FIG. 7
T1 construct: purchased Enzyme Research Laboratories (South Bend, Ind.)
T1 sequence (P02671 20-629 limits assumed): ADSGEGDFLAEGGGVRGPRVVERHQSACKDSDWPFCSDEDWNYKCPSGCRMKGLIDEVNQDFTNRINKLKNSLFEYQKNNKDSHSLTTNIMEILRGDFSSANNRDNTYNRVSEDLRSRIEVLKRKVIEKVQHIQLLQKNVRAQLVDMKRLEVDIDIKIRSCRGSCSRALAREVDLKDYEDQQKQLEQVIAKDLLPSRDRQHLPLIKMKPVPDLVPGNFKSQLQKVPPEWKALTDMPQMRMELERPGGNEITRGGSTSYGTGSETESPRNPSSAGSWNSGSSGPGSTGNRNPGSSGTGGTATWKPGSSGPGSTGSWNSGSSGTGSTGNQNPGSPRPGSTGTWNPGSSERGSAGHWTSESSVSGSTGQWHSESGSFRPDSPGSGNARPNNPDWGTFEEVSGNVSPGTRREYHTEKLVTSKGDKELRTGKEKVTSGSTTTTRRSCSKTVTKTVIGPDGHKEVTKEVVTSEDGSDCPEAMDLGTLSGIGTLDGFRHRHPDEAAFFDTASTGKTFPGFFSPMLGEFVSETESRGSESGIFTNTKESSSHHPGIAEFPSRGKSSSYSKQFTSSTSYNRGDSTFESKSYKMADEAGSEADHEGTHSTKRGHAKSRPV
T1 sequence (P02675 31-491): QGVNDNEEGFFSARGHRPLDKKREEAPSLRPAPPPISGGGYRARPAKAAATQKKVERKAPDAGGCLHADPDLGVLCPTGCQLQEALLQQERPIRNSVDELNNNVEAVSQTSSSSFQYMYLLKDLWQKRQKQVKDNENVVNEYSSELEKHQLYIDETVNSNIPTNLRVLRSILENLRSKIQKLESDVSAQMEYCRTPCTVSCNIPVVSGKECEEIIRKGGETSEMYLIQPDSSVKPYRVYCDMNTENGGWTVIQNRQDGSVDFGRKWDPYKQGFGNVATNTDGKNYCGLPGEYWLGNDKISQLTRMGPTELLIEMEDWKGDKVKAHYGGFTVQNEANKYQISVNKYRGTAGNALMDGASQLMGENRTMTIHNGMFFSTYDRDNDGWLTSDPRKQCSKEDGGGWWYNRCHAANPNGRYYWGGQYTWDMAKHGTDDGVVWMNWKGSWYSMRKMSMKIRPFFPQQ
T1 sequence (P02679 27-453): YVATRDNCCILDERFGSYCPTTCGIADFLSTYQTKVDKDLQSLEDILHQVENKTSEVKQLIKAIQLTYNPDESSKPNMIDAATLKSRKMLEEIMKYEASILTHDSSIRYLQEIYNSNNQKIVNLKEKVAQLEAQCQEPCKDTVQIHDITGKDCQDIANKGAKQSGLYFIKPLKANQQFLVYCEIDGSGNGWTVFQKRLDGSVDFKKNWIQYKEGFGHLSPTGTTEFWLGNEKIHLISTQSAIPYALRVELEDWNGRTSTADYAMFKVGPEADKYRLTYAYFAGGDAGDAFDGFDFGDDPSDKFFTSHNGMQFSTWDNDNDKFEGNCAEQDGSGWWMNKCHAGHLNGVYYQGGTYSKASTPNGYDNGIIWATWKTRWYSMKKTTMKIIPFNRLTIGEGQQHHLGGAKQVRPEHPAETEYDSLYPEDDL
Experimental: FIG. 7 is a graph depicting the binding of pUR4 to ECM Proteins. 96-well plates were coated with 10 μg/mL type I collagen (COL), denatured type I collagen (dCOL), fibronectin (FN), laminin (LN), vitronectin (VN), or fibrinogen (FG) at 4° C. overnight. pUR4 was added to the wells and serially diluted. Bound pUR4 was detected as described herein. Measurements were done at 405 nm on a Wallac 1420 multilabel counter. Data represents the average of duplicate determinations, and the error bars the range.
96-well tissue culture plates were coated with 10 μg/mL type I collagen, fibronectin, laminin, fibrinogen, or vitronectin overnight at 4° C. Denatured collagens were generated as described (George et al., “Fibronectins are Essential for Heart and Blood Vessel Morphogenesis but are Dispensable for Initial Specification of Precursor Cells,” Blood 90:3073-3081 (1997), which is hereby incorporated by reference in its entirety). Plates were blocked with 1% bovine serum albumin (BSA) in Tris buffered saline (TBS) for 1 hour, then washed with TBS. pUR4 was serially diluted into coated wells, then incubated at room temperature for 90 min. Wells were washed with TBS containing 0.1% Tween 20. […] After washing, peroxidase activity was quantified by using 2,2′-azino-bis-(3-ethylbenthiazoline-[…]). […]

left carotid artery = assay: Detection of Texas-Red conjugated peptides in vessel wall; assay type: in vivo, mouse; conditions: Texas-Red conjugate 20 μM in pluronic gel, periadventitial
Experimental: FIGS. 8A-8E provide visualization of pUR4 in the vessel wall. Texas-Red (TR) conjugated pUR4 (20 μM) was embedded in pluronic gel and periadventitially delivered to the left carotid artery following ligation surgery as described infra. The right carotid artery from the same animal was used as a control. Mice were sacrificed 1, 3, and 7 days after surgery, and the carotid arteries were harvested and flash frozen. Longitudinal sections (20 μm) were immunostained with an anti-TR antibody. Representative images from the right common carotid artery (FIG. 8A), and left common carotid artery of 1 day (FIG. 8B), 3 day (FIG. 8C), and 7 day (FIG. 8D) animals are shown. The percentage area which is TR (+) (FIG. 8E) was assessed in the media of the vessels. Media=M; adventitia=Ad; lumen=L. Bar, 20 μm.
pUR4 and III-11C were conjugated to Texas-Red, as per the manufacturer's instructions (Molecular Probes/Invitrogen). 20 μM Texas-Red (TR) conjugated proteins were embedded in pluronic gel and applied to the vessel following ligation surgery. […] For quantitatively evaluating the efficacy of peptide delivery to the common carotid artery, 15-18 fields of view in the media from 2-3 mice at each time point were analyzed. The TR (+) areas were quantitated using an automated programmed segmentation procedure in ImagePro. The percentage of TR (+) area to the total medial area was determined.

[1] = system: fibronectin matrix assembly; assay: Inhibition of fibronectin matrix assembly in cell culture; assay type: cell-based; conditions: cell culture experiments

B1: pUR4: 49-mer peptide derived from the bacterial F1 adhesin, His tagged, SEQ ID NO:1; class I fibronectin polymerization inhibitor (peptide)
chain: MRGSHHHHHHGSKDQSPLAGESGETEYITEVYGNQQNPVDIDKKLPNETGFSGNMVETEDTKLN
modifications: His tag; Bacterial adhesin derived peptide pUR4
Question: For B1, which binding to fibrinogen (fibrinogen) is on record?
Answer: does not bind

Question: And the “peptide detected in the vessel wall (media and adventitia)” value (left carotid artery; 1 to 3 days after application)?
Answer: readily detected

Question: And the “levels of the peptide in the vessel wall by day 7” value (left carotid artery; day 7)?
Answer: significantly reduced

Question: And the “concentration effective at inhibiting fibronectin matrix assembly” value [1]?
Answer: 50 to 100 nM
